How the values were obtained:
VEGF-A121 (Homo sapiens) = target: T1, VEGF-A121 (Homo sapiens) (UniProt P15692); conditions: all G 2'-F; A,C,U 2'-OMe; Sp3 (1,3-propanediol) joins the two parts (position 9); 5' C6NH2; 3' idT; direct TR-FRET, RT
T1 sequence: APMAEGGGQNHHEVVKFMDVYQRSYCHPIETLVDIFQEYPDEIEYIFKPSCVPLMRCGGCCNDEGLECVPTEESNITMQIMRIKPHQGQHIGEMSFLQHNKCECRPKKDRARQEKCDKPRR

VEGF-A165 (Homo sapiens) = test system: T2, VEGF-A165 (Homo sapiens); conditions: all G 2'-F; A,C,U 2'-OMe; Sp3 (1,3-propanediol) joins the two parts (position 9); 5' C6NH2; 3' idT; direct TR-FRET, RT
T2 sequence: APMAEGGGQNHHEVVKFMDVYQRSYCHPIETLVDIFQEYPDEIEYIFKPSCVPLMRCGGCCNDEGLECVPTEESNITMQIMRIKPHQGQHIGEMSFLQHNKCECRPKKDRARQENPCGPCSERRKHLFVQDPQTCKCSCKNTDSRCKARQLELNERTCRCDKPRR

AGGCCGCCCCGCGCGGAGGGGUUUCAUUAUCCCGUUUGGCGGCUU [Aptamer 47]
Kd (VEGF-A121 (Homo sapiens)): 11 nM
Kd (VEGF-A165 (Homo sapiens)): 2.1 nM

Source: patent publication US20220098591
